From article PMC7618375, “Structure and Methyl-lysine Binding Selectivity of the HUSH Complex Subunit MPP8” (Journal of molecular biology, 2024)
Each block holds one binder with its values, some of them ahead of it. No end group written: not given here. Me2 = dimethyl on the lysine side-chain amine

What was measured:
[1] = target: the molecule itself; experiment: crystal structure; MPP8 CTD, X-ray, 3.04 Å, eight chains in the asymmetric unit; crystals at 18 °C, PEG 4000/1,2,6-hexanetriol, pH 8.5
[2] = target: T1, MPP8 chromodomain (CD, residues 55-116) (human, UniProt Q99549 55-116); experiment: ITC; 750 uM peptide in the syringe titrated into 50 uM MPP8 CD in the cell; 50 mM HEPES pH 7.4, 0.1 M NaCl, 0.5 mM TCEP, 25 °C; single-site model; conditions: both partners purified
T1 construct: MPP8 (M-phase phosphoprotein 8), human, chromodomain, residues 55-116, UniProt Q99549; Cloned in pET15b with a TEV site (ENLYFQG) in place of the thrombin site; also called MPP8 CD; M-phase phosphoprotein 8 chromodomain; source: E. coli BL21 (DE3), purified (Ni-NTA, Mono Q, Superdex 75 SEC)
T1 sequence (looked up): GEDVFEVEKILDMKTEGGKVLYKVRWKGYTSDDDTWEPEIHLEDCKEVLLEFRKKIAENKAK

B1: MPP8 C-terminal domain (CTD, residues 547-860) (domain or fragment, human, UniProt Q99549 547-860, looked up)
chain: DFQKHLDGKDENFAATDAIPSNVLRDAVKNGDYITVKVALNSNEEYNLDQEDSSGMTLVMLAAAGGQDDLLRLLITKGAKVNGRQKNGTTALIHAAEKNFLTTVAILLEAGAFVNVQQSNGETALMKACKRGNSDIVRLVIECGADCNILSKHQNSALHFAKQSNNVLVYDLLKNHLETLSRVAEETIKDYFEARLALLEPVFPIACHRLCEGPDFSTDFNYKPPQNIPEGSGILLFIFHANFLGKEVIARLCGPCSVQAVVLNDKFQLPVFLDSHFVYSFSPVAGPNKLFIRLTEAPSAKVKLLIGAYRVQLQ
notes: MPP8 (M-phase phosphoprotein 8), human, C-terminal domain (ankyrin repeats and PINIT-like domain), residues 547-860, UniProt Q99549; residues 547-562 disordered in the crystal, model spans 563-860; also called MPP8 CTD; source: E. coli BL21 (DE3), purified (Ni-NTA, thrombin cleavage, Resource Q, Superdex 200 SEC); not shown: His6, N-terminal, cleaved
- stoichiometry N [1]: 2

- Kd [2]: 1700 nM
Binder: TKQTARK(Me2)STGGK [Histone H3 peptide dimethylated at lysine 9]
